In paper PMC9232890:

Biological target: NIST mAb
Assay: AUC

NIST mAb (antibody)
3%: amount of dimer (%), fit of 20 scans | amount of dimer (%), fit of 50 scans | amount of dimer (%), fit of 100 scans | amount of dimer (%), fit of 250 scans
